Results published in article PMC9482650, “Quantitative fragmentomics allow affinity mapping of interactomes” (Nature Communications, 2022).

Experiments:
Experiment in all cases: holdup assay
Set-up in all cases: key: below the threshold = too weak to quantify, mostly under pKd 3.1 to 4
CASK, O14936 = target: CASK, O14936
GRID2IP_1, A4D2P6 = target: GRID2IP_1, A4D2P6
RADIL, Q96JH8 = target: T1, RADIL, Q96JH8
T1 sequence (Q96JH8 971-1071, limits assumed, looked up): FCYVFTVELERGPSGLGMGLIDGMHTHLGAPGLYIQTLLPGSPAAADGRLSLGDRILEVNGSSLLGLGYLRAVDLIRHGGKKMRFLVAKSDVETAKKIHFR

MPDZ_5, O75970 = target: T2, MPDZ_5, O75970
T2 sequence (O75970 695-796, limits assumed, looked up): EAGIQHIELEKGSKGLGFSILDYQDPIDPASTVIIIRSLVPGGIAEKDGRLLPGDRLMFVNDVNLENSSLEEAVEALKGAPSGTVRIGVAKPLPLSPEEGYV

Inadl_1, Q8NI35 = target: Inadl_1, Q8NI35
Inadl_10, Q8NI35 = target: Inadl_10, Q8NI35
DFNB31_2, Q9P202 = target: T3, DFNB31_2, Q9P202
T3 sequence (Q9P202 274-371, limits assumed, looked up): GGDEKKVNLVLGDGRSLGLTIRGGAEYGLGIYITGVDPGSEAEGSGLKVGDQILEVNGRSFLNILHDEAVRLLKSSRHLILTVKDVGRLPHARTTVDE

SCRIB_1, Q14160 = target: SCRIB_1, Q14160
PARD3B_1, Q8TEW8 = target: T4, PARD3B_1, Q8TEW8
T4 sequence (Q8TEW8 196-299, limits assumed, looked up): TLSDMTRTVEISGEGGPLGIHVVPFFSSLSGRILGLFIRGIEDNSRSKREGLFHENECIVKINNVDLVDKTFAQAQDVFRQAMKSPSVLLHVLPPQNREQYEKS

DFNB31_1, Q9P202 = target: T5, DFNB31_1, Q9P202
T5 sequence (Q9P202 135-233, limits assumed, looked up): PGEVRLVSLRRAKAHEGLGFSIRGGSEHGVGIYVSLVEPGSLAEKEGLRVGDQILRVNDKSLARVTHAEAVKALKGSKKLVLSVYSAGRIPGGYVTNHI

GRIP2_3, Q9C0E4 = target: GRIP2_3, Q9C0E4
MAGI2_3, Q86UL8 = target: MAGI2_3, Q86UL8
MAGI1_1, Q96QZ7 = target: MAGI1_1, Q96QZ7
FRMPD2_3, Q68DX3 = target: FRMPD2_3, Q68DX3
IL16_3, Q14005 = target: IL16_3, Q14005
MPDZ_10, O75970 = target: T6, MPDZ_10, O75970
T6 sequence (O75970 1624-1722, limits assumed, looked up): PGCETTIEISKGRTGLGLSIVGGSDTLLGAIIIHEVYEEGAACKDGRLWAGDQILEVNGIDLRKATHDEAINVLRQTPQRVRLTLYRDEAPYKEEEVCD

DLG3_1, Q92796 = target: T7, DLG3_1, Q92796
T7 sequence (Q92796 125-227, limits assumed, looked up): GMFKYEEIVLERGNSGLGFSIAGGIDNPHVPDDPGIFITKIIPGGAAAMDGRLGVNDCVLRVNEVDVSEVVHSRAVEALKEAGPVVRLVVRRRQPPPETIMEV

SCRIB_2, Q14160 = target: SCRIB_2, Q14160
NHERF3_1, Q5T2W1 = target: T8, NHERF3_1, Q5T2W1
T8 sequence (Q5T2W1 4-100, limits assumed, looked up): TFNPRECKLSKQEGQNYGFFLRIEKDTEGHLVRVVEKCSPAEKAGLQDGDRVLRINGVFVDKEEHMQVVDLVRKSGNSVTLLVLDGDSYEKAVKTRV

FRMPD1, Q5SYB0 = target: T9, FRMPD1, Q5SYB0
T9 sequence (Q5SYB0 52-145, limits assumed, looked up): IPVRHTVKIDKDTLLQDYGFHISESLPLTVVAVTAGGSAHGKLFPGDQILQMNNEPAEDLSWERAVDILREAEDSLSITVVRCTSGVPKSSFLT

GRASP, Q7Z6J2 = target: GRASP, Q7Z6J2
TJP2_1, Q9UDY2 = target: TJP2_1, Q9UDY2
MAGI2_2, Q86UL8 = target: MAGI2_2, Q86UL8
LIN7A, O14910 = target: T10, LIN7A, O14910
T10 sequence (O14910 103-200, limits assumed, looked up): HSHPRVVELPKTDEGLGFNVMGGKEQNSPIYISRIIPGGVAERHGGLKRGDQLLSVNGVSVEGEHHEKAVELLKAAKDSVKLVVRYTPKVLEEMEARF

PDLIM1, O00151 = target: PDLIM1, O00151
Inadl_5, Q8NI35 = target: Inadl_5, Q8NI35
DLG2_3, Q15700 = target: DLG2_3, Q15700
GIPC2, Q8TF65 = conditions: plain residues with an end cap or a label only (N-terminal biotin on a linker: ahx)
[1] = plain residues with an end cap or a label only (N-terminal biotin on a linker: ttds)
[2] = plain residues with an end cap or a label only (N-terminal biotin on a linker: ahx)

Sequence of CASK, O14936 (O14936 487-570): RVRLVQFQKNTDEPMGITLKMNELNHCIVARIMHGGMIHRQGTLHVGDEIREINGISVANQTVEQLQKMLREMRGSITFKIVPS
Sequence of MAGI2_2, Q86UL8 (Q86UL8 410-522): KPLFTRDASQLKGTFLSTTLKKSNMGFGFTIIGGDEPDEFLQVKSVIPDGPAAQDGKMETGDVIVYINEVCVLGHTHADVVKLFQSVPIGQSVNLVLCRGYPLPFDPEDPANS
Sequence of Inadl_1, Q8NI35 (Q8NI35 113-229): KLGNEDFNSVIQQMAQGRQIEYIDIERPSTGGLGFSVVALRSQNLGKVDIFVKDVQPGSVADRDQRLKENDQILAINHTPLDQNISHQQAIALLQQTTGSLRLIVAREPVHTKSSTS
Sequence of TJP2_1, Q9UDY2 (Q9UDY2 24-128): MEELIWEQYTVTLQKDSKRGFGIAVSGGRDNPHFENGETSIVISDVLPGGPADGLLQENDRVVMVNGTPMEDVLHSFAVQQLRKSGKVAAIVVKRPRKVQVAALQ
Sequence of Inadl_5, Q8NI35 (Q8NI35 673-780): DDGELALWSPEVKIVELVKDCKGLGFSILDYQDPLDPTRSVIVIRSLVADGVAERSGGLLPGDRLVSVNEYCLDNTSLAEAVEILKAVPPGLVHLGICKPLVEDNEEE
Sequence of Inadl_10, Q8NI35 (Q8NI35 1673-1763): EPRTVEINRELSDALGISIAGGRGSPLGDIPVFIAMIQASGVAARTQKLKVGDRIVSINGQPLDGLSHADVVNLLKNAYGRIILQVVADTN
Sequence of FRMPD2_3, Q68DX3 (Q68DX3 1073-1166): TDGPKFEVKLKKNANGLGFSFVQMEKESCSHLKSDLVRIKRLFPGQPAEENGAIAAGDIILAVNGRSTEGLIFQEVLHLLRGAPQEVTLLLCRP
Sequence of SCRIB_2, Q14160 (Q14160 857-960): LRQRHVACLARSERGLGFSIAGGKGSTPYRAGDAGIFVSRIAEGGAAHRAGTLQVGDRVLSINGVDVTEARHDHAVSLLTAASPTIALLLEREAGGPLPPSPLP
Sequence of PDLIM1, O00151 (O00151 1-87): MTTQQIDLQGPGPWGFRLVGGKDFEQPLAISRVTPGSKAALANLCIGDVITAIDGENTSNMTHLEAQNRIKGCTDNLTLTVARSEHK
Sequence of MAGI1_1, Q96QZ7 (Q96QZ7 1-106): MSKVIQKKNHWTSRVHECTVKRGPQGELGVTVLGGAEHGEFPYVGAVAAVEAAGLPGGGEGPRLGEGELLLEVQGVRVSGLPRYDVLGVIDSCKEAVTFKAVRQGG
Sequence of SCRIB_1, Q14160 (Q14160 718-814): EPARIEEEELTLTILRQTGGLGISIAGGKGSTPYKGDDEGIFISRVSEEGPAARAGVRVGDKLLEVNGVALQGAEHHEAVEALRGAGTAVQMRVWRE
Sequence of GRASP, Q7Z6J2 (Q7Z6J2 96-193): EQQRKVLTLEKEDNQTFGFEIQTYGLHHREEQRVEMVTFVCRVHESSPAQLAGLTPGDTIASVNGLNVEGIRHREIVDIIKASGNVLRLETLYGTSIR
Sequence of MAGI2_3, Q86UL8 (Q86UL8 600-682): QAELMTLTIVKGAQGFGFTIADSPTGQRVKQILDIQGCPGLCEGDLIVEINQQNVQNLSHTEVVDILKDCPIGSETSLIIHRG
Sequence of GRIP2_3, Q9C0E4 (Q9C0E4 238-339): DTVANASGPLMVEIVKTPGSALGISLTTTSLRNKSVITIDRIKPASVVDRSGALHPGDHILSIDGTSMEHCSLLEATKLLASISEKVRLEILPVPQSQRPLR
Sequence of IL16_3, Q14005 (Q14005 1107-1207): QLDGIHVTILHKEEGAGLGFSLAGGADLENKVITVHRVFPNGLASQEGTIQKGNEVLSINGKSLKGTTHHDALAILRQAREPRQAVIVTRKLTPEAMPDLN
Sequence of GRID2IP_1, A4D2P6 (A4D2P6 1-87): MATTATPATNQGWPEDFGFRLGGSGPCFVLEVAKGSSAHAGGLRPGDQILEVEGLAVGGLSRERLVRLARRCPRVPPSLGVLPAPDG
Sequence of GIPC2, Q8TF65 (Q8TF65 112-203): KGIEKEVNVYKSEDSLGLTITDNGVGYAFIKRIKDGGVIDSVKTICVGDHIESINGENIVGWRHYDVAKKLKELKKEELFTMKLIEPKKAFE

DEDQHTQITKV [PTEN, P60484] was tested, and the pKd (CASK, O14936; [1]) was 3.47, the pKd (GRID2IP_1, A4D2P6; [1]) was “below the threshold” and the pKd (RADIL, Q96JH8; [1]) was 3.91. It also gave a pKd (MPDZ_5, O75970; [1]) of 3.46, a pKd (Inadl_1, Q8NI35; [1]) of 3.77 and a pKd (Inadl_10, Q8NI35; [1]) of 3.58. It also gave a pKd (DFNB31_2, Q9P202; [1]) of 3.62, a pKd (SCRIB_1, Q14160; [1]) of 4.83 and a pKd (PARD3B_1, Q8TEW8; [1]) of 3.72. It also gave a pKd (DFNB31_1, Q9P202; [1]) of 3.86, a pKd (GRIP2_3, Q9C0E4; [1]) of 3.56 and a pKd (MAGI2_3, Q86UL8; [1]) of 4.64. The pKd (MAGI1_1, Q96QZ7; [1]) was “below the threshold”, the pKd (FRMPD2_3, Q68DX3; [1]) was “below the threshold” and the pKd (IL16_3, Q14005; [1]) was “below the threshold”. The pKd (MPDZ_10, O75970; [1]) was 3.98, the pKd (DLG3_1, Q92796; [1]) was “below the threshold” and the pKd (SCRIB_2, Q14160; [1]) was 3.73. For the same binder, the pKd (NHERF3_1, Q5T2W1; [1]) was 4.03, the pKd (FRMPD1, Q5SYB0; [1]) was “below the threshold” and the pKd (GRASP, Q7Z6J2; [1]) was 4.72. For the same binder, the pKd (TJP2_1, Q9UDY2; [1]) was “below the threshold”, the pKd (MAGI2_2, Q86UL8; [1]) was “below the threshold” and the pKd (LIN7A, O14910; [1]) was “below the threshold”. For the same binder, the pKd (PDLIM1, O00151; [1]) was “below the threshold”, the pKd (Inadl_5, Q8NI35; [1]) was “below the threshold” and the pKd (DLG2_3, Q15700; [1]) was “below the threshold”.

For EDEDEQVSAV [RAPGEF2, Q9Y4G8], the pKd (CASK, O14936; [2]) was “below the threshold”, the pKd (GRID2IP_1, A4D2P6; [2]) was “below the threshold” and the pKd (GIPC2, Q8TF65) was 3.81. The pKd (RADIL, Q96JH8; [2]) was “below the threshold”, the pKd (MPDZ_5, O75970; [2]) was “below the threshold” and the pKd (Inadl_1, Q8NI35; [2]) was “below the threshold”. The pKd (Inadl_10, Q8NI35; [2]) was “below the threshold”, the pKd (DFNB31_2, Q9P202; [2]) was “below the threshold” and the pKd (SCRIB_1, Q14160; [2]) was “below the threshold”. The pKd (PARD3B_1, Q8TEW8; [2]) was “below the threshold”, the pKd (DFNB31_1, Q9P202; [2]) was “below the threshold” and the pKd (GRIP2_3, Q9C0E4; [2]) was “below the threshold”. The pKd (MAGI2_3, Q86UL8; [2]) was 4.23, the pKd (MAGI1_1, Q96QZ7; [2]) was “below the threshold” and the pKd (FRMPD2_3, Q68DX3; [2]) was “below the threshold”. For the same binder, the pKd (IL16_3, Q14005; [2]) was “below the threshold”, the pKd (MPDZ_10, O75970; [2]) was 3.82 and the pKd (DLG3_1, Q92796; [2]) was “below the threshold”. For the same binder, the pKd (SCRIB_2, Q14160; [2]) was “below the threshold”, the pKd (NHERF3_1, Q5T2W1; [2]) was “below the threshold” and the pKd (FRMPD1, Q5SYB0; [2]) was “below the threshold”. For the same binder, the pKd (GRASP, Q7Z6J2; [2]) was 4.86, the pKd (TJP2_1, Q9UDY2; [2]) was “below the threshold” and the pKd (MAGI2_2, Q86UL8; [2]) was “below the threshold”. For the same binder, the pKd (LIN7A, O14910; [2]) was “below the threshold”, the pKd (PDLIM1, O00151; [2]) was “below the threshold” and the pKd (Inadl_5, Q8NI35; [2]) was “below the threshold”. For the same binder, the pKd (DLG2_3, Q15700; [2]) was “below the threshold”.
